{"source": "patent US20240408238", "system": "AcrIIC5Smu"}
{"substance": "Nme1Cas9-Nme2Cas9PID chimera (Nme1Cas9 with its PID replaced by that of Nme2Cas9)", "values": [{"measurement": "in vitro DNA cleavage by the PID-swapped chimera in the presence of Acr (10-fold ratio; ~30x higher Cas9 concentration)", "result": "No inhibition was observed by AcrIIC5Smu on this protein chimera"}]}
